Experimental data taken from paper PMC11024442, “Lipocalin-type prostaglandin D synthase: a glymphopathy marker in idiopathic hydrocephalus” (Frontiers in Aging Neuroscience, 2024).

Target: T1, human recombinant Tau-441 (human, UniProt P10636-8 1-441)
T1 construct: Commercial recombinant protein; source: bought: WAKO
Test: SPR; Biacore 2000; recombinant human Δ1–22 L-PGDS amine-coupled to a CM5 chip; Tau-441 flowed at 3, 2 and 1 nM; dissociation on washing with Dulbecco's phosphate-buffered saline; Kd from the sensorgrams with BIAevaluation 3.1
Details: both partners purified

T1 sequence (P10636 other isoform, or with tags, fused parts or gaps): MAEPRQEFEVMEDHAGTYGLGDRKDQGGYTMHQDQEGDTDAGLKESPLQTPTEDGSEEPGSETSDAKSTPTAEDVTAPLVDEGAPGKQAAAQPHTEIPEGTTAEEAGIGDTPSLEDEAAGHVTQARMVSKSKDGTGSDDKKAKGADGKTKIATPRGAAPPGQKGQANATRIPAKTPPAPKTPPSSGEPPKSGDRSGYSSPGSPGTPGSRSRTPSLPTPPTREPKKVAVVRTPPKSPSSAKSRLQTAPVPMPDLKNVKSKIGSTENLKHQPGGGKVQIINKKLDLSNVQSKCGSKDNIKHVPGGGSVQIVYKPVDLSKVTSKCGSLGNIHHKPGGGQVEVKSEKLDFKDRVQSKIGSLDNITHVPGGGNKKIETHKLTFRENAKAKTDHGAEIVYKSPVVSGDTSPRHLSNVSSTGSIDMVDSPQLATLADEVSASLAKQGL

B1: human recombinant Δ1–22 L-PGDS (lipocalin-type prostaglandin D synthase without the signal sequence) (enzyme, UniProt P41222 23-190, looked up)
chain: APEAQVSVQPNFQQDKFLGRWFSAGLASNSSWLREKKAALSMCKSVVAPATDGGLNLTSTFLRKNQCETRTMLLQPAGSLGSYSYRSPHWGSTYSVSVVETDYDQYALLYSQGSKGPGEDFRMATLYSRTQTPRAELKEKFTAFCKAQGFTEDTIVFLPQTDKCMTEQ
notes: Cloned into pGEX-2T as a GST fusion and cut with thrombin; also called recombinant human ∆1–22 L-PGDS; recombinant human L-PGDS; source: E. coli BL21 (DE3), purified (glutathione-Sepharose 4B, thrombin digestion, gel filtration on HiLoad Superdex 75)
  Kd: 910 µM
